The source of these data is the supplement of paper PMC12042874.

± gives the uncertainty stated by the source.

The nature of this series: amyloid nucleation score (Sup35N fusion, yeast selection) (log enrichment); library NNK3; higher = more nucleation; inactive = no reads after selection. In outline:
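Nucleation score is defined as the DiMSum log enrichment of output over input reads, with centring on the mode score of non-aggregating sequences. A minimum of 100 input reads was required for each sequence. Reads came from Illumina sequencing of plasmid inserts from psi-negative yeast expressing Sup35N fused to peptides of 20 random codons, induced with 100 μM copper sulfate for 24 hours and grown 7 days at 30°C on medium lacking adenine and uracil.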
Take NVLCSVRC: the amyloid nucleation score result is “inactive”. Under SYRPDSCRLNTMNDFSSCCS stands “inactive”. The result for PVWFTYQHHCWVKLICV reads “inactive”; that for VTKPFTIKGTI, “inactive”; that for VDGSVNMRALKCINNCVL, “inactive”. VCSLVGKKRPHGSTSI: the amyloid nucleation score entry is “inactive”. Under FFYNDVETVCNVICPKVYSD stands “inactive”.

On to TFSDRSFRQWVWQELSFCGS, for which the amyloid nucleation score entry was “inactive”.

Take ESIRCFSTYKNGSIRSFRAL: the amyloid nucleation score result is “inactive”. As for YSCVVL, the amyloid nucleation score result was “inactive”. The result for VAADITSEA reads “inactive”; that for SKVRMVGVSKKCGLTVISVQ, “inactive”; that for HIPGNLYYKDTFRCAELGHW, “inactive”. With FVERMVLVLV, the amyloid nucleation score result was “inactive”. The result for PGNNFKNAAESFRKAYMCRR reads “inactive”; that for LKYLCYHRQCSLMPRCWMDR, “inactive”; that for FYICYLNPNQQLFVLN, 1.27 ± 0.1. Under IGTTEQ stands “inactive”. Under RDFATTNGRDNIELHSQGNY stands “inactive”; under RNPDLVVKSQGVNRWGDSRC, “inactive”; under MFFELSLIISCFTEV, 1.42 ± 0.11.

For NLASCFVSIVEGSHFVYC, the amyloid nucleation score was 1.9 ± 0.1. Take YKEMVRRNLSRANKFDCGSM: the amyloid nucleation score result is “inactive”. For the substance VIFNHVLACADYGVHKVVDL, the amyloid nucleation score entry is “inactive”. Consider TPPVWTSPSSRLASCFKGLW, for which the amyloid nucleation score came to 1.31 ± 0.15. The result for QRLIRMSFSMAHMTSNFVMV reads “inactive”.

Take WFDWVMVTYEGLSTVF: the amyloid nucleation score result was “inactive”.

Take VYCEPNMP: the amyloid nucleation score is -0.163 ± 1.1. The result for WDKMYDDEGKGIVLEVVFLR reads -0.012 ± 0.87; that for SDVIGLLFGEYNISVVLRGR, “inactive”.

As to WSVSKCDVLGLNSDVFKLWL, the amyloid nucleation score result is “inactive”. Under DNHVVKVQL stands “inactive”; under IDIVCAF, “inactive”. Under KYNWLNKVSTIGTSKGSSIG stands “inactive”; under SPPLYSYRGRYMERYHSKWN, “inactive”.

With AMILVRVYGVKRVWAYLLVW, the amyloid nucleation score result is “inactive”. The result for YFFSVAISKVYDFSVKSRCT reads 1.98 ± 0.086.

Take TRPESETHGMMR: the amyloid nucleation score entry is “inactive”. The result for AHWSEYDAKFTKRLV reads “inactive”; that for TYFTFSTWLRMYSGYSLVQV, “inactive”; that for NSCYFFNLHYVYHETANCFI, 3.2 ± 0.068.

Take CWVRIVAICMGFW: the amyloid nucleation score result is “inactive”.

Take FNFFTKVASDHRNI: the amyloid nucleation score entry was “inactive”.

For the substance PRPLGLFTSYDNGLGYRQGQ, the amyloid nucleation score result was “inactive”.

Turning to VWEFICVGVLC, the amyloid nucleation score was determined as 2.65 ± 0.05. Under THVPYIT stands “inactive”; under QTLNERTWTGYDIHVRHVRR, “inactive”; under EKLIVNDYCRRSGPDMVAVD, “inactive”.

For STSVSYEWPDLGACIGGDFG, the amyloid nucleation score result is “inactive”. FKYLRCNNIIVCPVVMVHLT registered an amyloid nucleation score of 0.345 ± 0.22. The result for FLKCGRSVPGV reads “inactive”; that for VMCVFLLYI, 1.08 ± 0.11. The result for YCVWLVSKTISWFQTVFI reads “inactive”; that for NVIISQA, “inactive”; that for GPLSHRN, “inactive”. For the substance FQRFYYLCWPSIWNMFQGGG, the amyloid nucleation score result was “inactive”. For LWKVRCSSGHGEIYAYCDMA, the amyloid nucleation score entry was “inactive”. Turning to HGTKREKIYLYGYCPDKNHH, the amyloid nucleation score result is “inactive”. Under RVHLGGMYRWVCEVNV stands “inactive”; under CDFYVNGTGPSETRWNSKEH, “inactive”. The result for CVTRDDLCYW reads “inactive”. The result for RKMFWDGF reads “inactive”; that for RKARRGCYVFLPKFSNVEFH, 1.03 ± 0.12. Regarding YFGVTLLMYERARWASFYRF, the amyloid nucleation score result was “inactive”.

For PITDNHFG, the amyloid nucleation score is -0.697 ± 1.4.

On to SCAAPMIILTDKSCGRRGLG, for which the amyloid nucleation score result is “inactive”. In turn, FVSGDSNTIIQPMAYNMDSK yielded an amyloid nucleation score of -0.282 ± 0.42. The result for AMMHNIILFKFVLGYVLMSR reads “inactive”; that for CLTVHTVNIIGMNFIVNVAL, 2.72 ± 0.085; that for CDFGFRMEEESLQRR, “inactive”. Turning to RRFVFVYINVPC, the amyloid nucleation score entry is “inactive”. Under TFKARSLILSLKLYANMDH stands “inactive”.

Turning to RFLSMSTLKRDS, the amyloid nucleation score entry was “inactive”. The result for RMFNSYNQFLLVAMLPYPLR reads 2.62 ± 0.071. The result for YRFRRDNLWCTWSSYMYMYC reads “inactive”. The result for SVRVYGDCLCECWSCYTPRT reads 0.502 ± 0.32; that for EKMAADQSS, “inactive”. For FSGCWRWNNQ, the amyloid nucleation score result is “inactive”. The result for GLMESSCRMGLLNPIQTFTQ reads 0.036 ± 0.98; that for VSIHCGRVYDWEGGFGERVN, “inactive”; that for CYQVWPARLSILHARLLGGR, “inactive”. Under SVSVRRNYKLIFAASM stands “inactive”; under VSLLRGVLGLVV, “inactive”; under LRRSVSIGDPGASLIKTSFA, “inactive”.

On to DSSKWHAMYMLTKMKMTGWL, for which the amyloid nucleation score entry is “inactive”. Under GFRMGLTHCHSALKEFRFCH stands “inactive”; under RCNKRTEGVSE, “inactive”. The result for IDCCWSCV reads 0.16 ± 0.34; that for YSDWDIYWIFMFGAGRFFMY, 3.06 ± 0.068; that for AIVCMHYQVVHCVKVSTCCY, “inactive”. The result for MSTMFVPLSCFSENKRQTLS reads “inactive”; that for HLSWNSLTDRNVLC, “inactive”.

Substance AQFGQTWFANFTSVFYCWSE had an amyloid nucleation score of 2.06 ± 0.064. Under RNHIALSLGWIQEDVIGSWN stands 0.991 ± 0.13. Under CEPMRYNCFCGFCIYDVRV stands 2.36 ± 0.06; under CSLNLCVKDTHIHEN, “inactive”; under TIVNL, “inactive”. GYFFGTTKKCETFTCMRWQV: the amyloid nucleation score entry is “inactive”. Under KGRFVLLDTTAQLNI stands “inactive”; under HSELW, “inactive”.

With WRAAIEDASLFIERIHNNSS, the amyloid nucleation score entry is “inactive”. Under QTHSMGDSECYL stands “inactive”. In the case of SGLRSTFDNTYTLYY, the amyloid nucleation score entry is “inactive”. The result for LKVNIWLPGRPFTILWSPRR reads “inactive”. The result for AGAVYVTAPLIAREDVVACY reads “inactive”. In the case of GLDHLPMFWYRPLIWPDVPQ, the amyloid nucleation score entry was “inactive”. Under VTSTQVMNMLD stands “inactive”; under RVLDNTSSCRERNVGGDSFA, “inactive”; under TRDQHIIYYFVEPFKIITGM, 1.5 ± 0.099. The result for RIPSGFTL reads “inactive”; that for VVSMQYCLFS, 2.81 ± 0.072; that for EYRLVKFHSPLFQRIKSIVA, “inactive”. For YSFRNSIDAFRLEYKKRYRF, the amyloid nucleation score is -0.403 ± 0.93.

Regarding FDSFLWLTMNWIELIGNILV, the amyloid nucleation score entry is “inactive”. As for IFFAMISCTYLLDCVDRNWG, the amyloid nucleation score result was “inactive”. The result for YSAAEDVKWVLGFCYAGFNS reads “inactive”; that for KKFLAPCSRCWPKMDITRLN, “inactive”.

Consider SVWRECNGKFVSFASHFADY, for which the amyloid nucleation score result is “inactive”. Under RSHLWGRLASYAMGTHAG stands “inactive”; under SKVKFILTRVPLFLLRIAES, “inactive”; under FEWLWIFWYNLFWLWGNYSI, “inactive”. Consider LLLRLLTMMVFNCILVDYGL, for which the amyloid nucleation score entry was “inactive”. The result for YITDYNQVSAHTQNKKTMGY reads “inactive”. The result for YFLFNTYWDRALQSKTVGGL reads “inactive”; that for LHSLKHNCVFSAIVGHCFQC, 2.11 ± 0.098. For the substance TLGPKEGWLVSNWMWSRVII, the amyloid nucleation score result is “inactive”. Take YLPRSW: the amyloid nucleation score entry is “inactive”.

In the case of TSSFVKSFRCYSAIG, the amyloid nucleation score result is “inactive”. Under RGCKKLYRIKANVMYVSTVN stands “inactive”; under YCVWFPSVCFIRRYVSIRLI, “inactive”; under RMRSMRSMF, “inactive”.
